Measurements from US20030162712A1.

Target: naturally occurring Tek as expressed on human endothelial cells (human) (UniProt Q02763)
Assay: flow cytometry on HMVEC-d, mAb 5 µg/ml, competitor human Ang2 10 µg/ml; negative control antibody

Chain of UniProt Q02763 (Q02763 23-1124): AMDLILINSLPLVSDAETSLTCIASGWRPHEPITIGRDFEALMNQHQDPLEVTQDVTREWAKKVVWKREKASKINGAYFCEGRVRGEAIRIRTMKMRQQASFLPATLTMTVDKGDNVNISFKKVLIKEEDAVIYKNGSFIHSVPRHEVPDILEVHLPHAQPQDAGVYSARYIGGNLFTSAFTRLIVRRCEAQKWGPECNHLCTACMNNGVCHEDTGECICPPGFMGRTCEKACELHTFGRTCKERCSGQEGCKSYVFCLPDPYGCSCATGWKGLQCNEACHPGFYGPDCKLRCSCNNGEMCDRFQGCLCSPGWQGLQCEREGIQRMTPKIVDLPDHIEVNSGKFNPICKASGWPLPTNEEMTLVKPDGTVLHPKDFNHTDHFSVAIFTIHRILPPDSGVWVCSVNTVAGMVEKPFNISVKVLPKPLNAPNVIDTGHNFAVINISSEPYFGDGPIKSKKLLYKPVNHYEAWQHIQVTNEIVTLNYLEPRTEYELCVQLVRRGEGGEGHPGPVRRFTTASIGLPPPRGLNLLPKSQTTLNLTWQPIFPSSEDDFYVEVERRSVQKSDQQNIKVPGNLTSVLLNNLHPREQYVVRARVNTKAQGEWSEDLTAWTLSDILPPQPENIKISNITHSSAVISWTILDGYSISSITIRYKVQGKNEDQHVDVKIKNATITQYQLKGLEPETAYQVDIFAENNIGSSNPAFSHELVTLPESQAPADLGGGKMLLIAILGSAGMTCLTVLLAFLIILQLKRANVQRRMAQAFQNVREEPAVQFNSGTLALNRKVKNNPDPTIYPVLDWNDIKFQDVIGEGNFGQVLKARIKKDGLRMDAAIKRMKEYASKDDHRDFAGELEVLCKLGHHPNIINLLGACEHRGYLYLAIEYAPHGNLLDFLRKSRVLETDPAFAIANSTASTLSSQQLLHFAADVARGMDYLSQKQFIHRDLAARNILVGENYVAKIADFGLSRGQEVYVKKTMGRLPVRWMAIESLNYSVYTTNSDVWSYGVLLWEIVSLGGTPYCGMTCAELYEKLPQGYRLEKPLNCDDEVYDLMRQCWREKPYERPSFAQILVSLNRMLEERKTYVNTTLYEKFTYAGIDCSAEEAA

## IgG1 negative control mAb (MOPC21) (antibody)
  Percent Inhibition of Antibody Binding by Ang2: 0%
